The results in this text go back to patent US20250320303A1 (SHENGHE CHINA BIOPHARMACEUTICAL, published 2025).

Assay [1] concerns the target T1, human TNFR2 (tumor necrosis factor receptor 2), on cells (human, UniProt P20333 23-461).
T1 construct: whole, on cells; also called hTNFR2; CHOK1-hTNFR2
T1 sequence (looked up): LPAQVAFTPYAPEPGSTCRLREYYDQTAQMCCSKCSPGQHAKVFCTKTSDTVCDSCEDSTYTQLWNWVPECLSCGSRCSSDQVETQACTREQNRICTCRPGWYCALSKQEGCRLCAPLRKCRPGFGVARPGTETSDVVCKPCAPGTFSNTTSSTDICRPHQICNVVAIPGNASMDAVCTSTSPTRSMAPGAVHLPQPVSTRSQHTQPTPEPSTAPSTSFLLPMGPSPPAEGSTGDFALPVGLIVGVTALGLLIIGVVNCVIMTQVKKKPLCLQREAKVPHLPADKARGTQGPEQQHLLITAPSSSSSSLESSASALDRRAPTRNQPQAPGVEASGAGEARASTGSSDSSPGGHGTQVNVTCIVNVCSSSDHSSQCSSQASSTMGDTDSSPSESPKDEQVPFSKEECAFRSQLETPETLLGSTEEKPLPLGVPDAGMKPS
Nature of the assay: flow cytometry on CHOK1-hTNFR2 cells. The method, then: CHOK1-hTNFR2 cells were plated at 1×10⁵/well (containing 1% BSA). 100 μL of isotype control and candidate antibodies were added at a concentration of 100 nm and 4-fold diluted in 11 gradients (containing 1% BSA). Cells were incubated at 4° C. for 1 hour and then washed twice with excess FACS buffer. Cells were resuspended in 100 μL of FACS buffer, and 100 μL of goat anti-rat IgG Fc-AF647 (1:500) containing 1% BSA was added, incubated at 4° C. without light for 30 minutes and washed twice with excess FACS buffer. Cells were fixed in fixation buffer and subsequently analyzed by flow cytometry. The FACS method screened for candidate antibodies with high specific binding activity to human TNFR2.
On the technique in general: A flow cytometer gives signals particle by particle.

Assay [2] concerns the target T1, human TNFR2 (tumor necrosis factor …). The experiment in a line: cell-based or functional assay.
For assay [3], the target named is T2, Recombinant human TNFR2-His Tag protein (Sino, Cat: 10417-H08H) (human, UniProt P20333 23-257).
T2 construct: Bought protein; also called hTNFR2; not shown: His tag
T2 sequence (looked up): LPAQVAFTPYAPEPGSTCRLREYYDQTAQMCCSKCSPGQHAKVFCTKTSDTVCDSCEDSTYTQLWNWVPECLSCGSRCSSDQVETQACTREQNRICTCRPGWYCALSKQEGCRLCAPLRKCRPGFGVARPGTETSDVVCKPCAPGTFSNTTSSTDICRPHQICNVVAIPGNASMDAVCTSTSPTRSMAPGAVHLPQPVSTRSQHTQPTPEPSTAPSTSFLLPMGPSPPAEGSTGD
The experiment in a line: competition ELISA: captured TNFR2-His, antibody titrated against 1.6 nM biotin-TNF-alpha (competitor). The procedure:
Anti-His antibody (1 μg/mL) was coated at 50 μL/well, incubated at 4° C. overnight and washed 3 times with PBST. 2% BSA was added at 200 μL/well, incubated at room temperature for 1 hour and washed 3 times with PBST. 0.25 μg/mL (containing 2% BSA) of recombinant human TNFR2-His Tag protein (Sino; Cat: 10417-H08H) was added at 50 μL/well, incubated for 1 hour at room temperature and washed 3 times with PBST. Primary antibody (isotype control or candidate antibody) was added at a concentration of 100 nM and diluted 4-fold in 11 gradients with a solution containing 1.6 nM recombinant human TNF-alpha-Biotin protein (Sino; Cat: 10602-HANE-B) and 2% BSA, incubated for 2 hours at room temperature and washed 3 times with PBST. Secondary antibody SA-HRP (1:5000) containing 2% BSA was added at 50 μL/well, incubated for 1 hour at room temperature and washed 3 times with PBST.
After washing, TMB developed the color for 10 min, and the OD450 reading was determined by the enzyme labeler after the display was terminated. Based on the experimental results, it was judged whether the candidate antibodies had ligand blocking activity. As shown in Table 2 and FIG. 2, 2 sequences show better ligand blocking ability than BMK2; 6 sequences show equivalent ligand blocking ability to BMK2.
(In general: An ELISA detects its analyte on a solid surface through an enzyme-linked reagent.)

For assay [4], the target named is T2, Recombinant human TNFR2-His Tag protein …. The experiment in a line: SPR (Biacore 8K), antibody captured by anti-rat Fc, 10 nM TNFR2-His as analyte, 1:1 model. The method, then:
The CM5 sensor chip was activated at a flow rate of […] for 420 s. The channel was then injected with 30 μg/mL of anti-rat Fc IgG in 10 mM NaAc (pH 4.5) at a flow rate of 10 μL/min. The chip was inactivated with 1 M ethanolamine-hydrochloric acid (GE) for 420 s at a flow rate of 10 μL/min.
Candidate antibodies in running buffer 1×HBS-EP+(10 mM HEPES, 150 mM NaCl, 3 mM EDTA, 0.05% Tween 20, pH 7.4) were captured onto Fc2 with anti-rat Fc IgG at a flow rate of 10 μL/min. The 10 nM recombinant human TNFR2-His Tag protein (Sino; Cat: 10417-H08H) and running buffer were sequentially injected into Fc1-Fc2 at a flow rate of […], bound for 180 s, and then dissociated for 3600 s. 10 mM glycine (pH 1.5) was injected as regeneration buffer after each dissociation.
Result plots for the reference channel Fc1 and the buffer channel were subtracted from the test result plots. The experimental data fit the 1:1 binding model. The molecular weight of 26.6 kDa was used to calculate the molar concentration of recombinant human TNFR2-His Tag protein.
In general terms: In SPR one partner is held on a chip, and binding of the other changes the refractive index at the surface.

The term EC50 denotes the midpoint of the concentration-response curve. A lower EC50 goes with a more potent agent. For orientation: IC50 means the concentration at which inhibition is half-maximal. Usually Kd stands for the free concentration of one partner at which half of the binding sites on the other are occupied at equilibrium, for simple one-to-one binding. As usually defined, the koff is a measure of how fast the partners let go of each other. The term kon denotes the rate constant with which the complex forms.

B1: Antibody 04 (antibody, V domains shown)
VH: EVHLQQSGPEVGRPGSSVKISCKASGYTFTDYIIHWVKQSPGQGLEWMGWIDPDYGNTDYADKFKKKATLTADASSNTAFIHLSRLTSEDTATYFCARDDGSPLVMDAWGQGTSVTVSS
VL: NIQLTQSPSLLSASVGDRVTLSCNGSQNIDNYLAWFQQKLGEAPKLLIYSTYSLQTGIPSRFSGSRSGTDYTLTISSLQPEDVATYFCFQYNNGYMFGAGTKLELK
notes: Rat monoclonal antibody from a hybridoma
As for B1, in assay [1], the concentration giving a half-maximal response (EC50) turned out to be 0.025 nM and the “Maximum average fluorescence value” worked out at 1320. Moreover, in assay [2], the “IC50(nM), Treg cell count after 72 h with IL2 and TNF-alpha” value was found to be 0.88 nM; the “Treg cell changes relative to IL-2(%)” value is 100%. Further, in assay [3], the half-maximal inhibitory concentration (IC50) came to 0.584 nM and the “Inhibition rate (%)” value was 96%. Also, in assay [4], the Kd was under 0.00758 nM, the off-rate constant (koff) was under 1e-05 s⁻¹ and the association rate constant (kon) came to 1.32e+06 M⁻¹ s⁻¹.
